Reference: patent US20240190915A1 (KLINIKUM RECHTS DER ISAR DER TECHNISCHEN UNIVERSIT T M NCHEN, published 2024)
Substitutions are numbered along the chain they refer to. One block for each binder: values may come before it.

Experiments:
[1] = target: Polr2a (mouse, endogenous) (mouse, UniProt P08775 1-1970); test: co-IP, endogenous proteins, mouse pancreatic tissue
[2] = target: T1, AGR2 (human, endogenous in PDAC cells) (human, UniProt O95994 21-175, limits assumed); test: co-IP competition in PDAC cells, dose-dependent inhibition of POLR2A-AGR2 binding
T1 construct: Endogenous protein co-immunoprecipitated from Capan2 cell lysate
T1 sequence (looked up): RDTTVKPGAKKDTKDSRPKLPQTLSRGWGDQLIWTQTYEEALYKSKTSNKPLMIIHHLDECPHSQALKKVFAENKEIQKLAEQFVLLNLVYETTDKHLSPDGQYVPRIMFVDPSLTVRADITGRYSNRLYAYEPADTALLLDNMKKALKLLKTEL

[3] = target: T1, AGR2 (human, endogenous in PDAC cells); test: co-IP competition in Capan2 cells (FIG. 5B)

binding result [1]: binds
B1: Agr2 (mouse, endogenous) (other)
chain: T1 sequence (looked up) with R1K, P7S, T13P, K44R, K50R, I54V, N74H, M109V, A135S, L141Y
notes: Endogenous protein co-immunoprecipitated from mouse pancreatic tissue lysate

binding result [2]: binds
B2: hexapeptide PTTIYY (SEQ ID NO:4) (peptide)
peptide: PTTIYY
notes: Synthetic, previously described peptide used as positive control; liposome-encapsulated form; also called bioactive hexapeptide; positive control

binding result [3]: binds
B3: hexapeptide NTAIYY (SEQ ID NO:2) (peptide)
peptide: NTAIYY
notes: also called bioactive hexapeptide
